From patent US20030119077A1

Tests used:
cytokeratin protein [1] = test: cytokeratin immunocytochemistry (CAM5.2-FITC) on fixed DUMS cells; percent of cells stained
cytokeratin protein [2] = test: cytokeratin immunocytochemistry (CAM5.2-FITC) on fixed PC-3 cells; percent of cells stained
cytokeratin protein [3] = test: cytokeratin immunocytochemistry (CAM5.2-FITC) on fixed LNCaP cells; percent of cells stained
cytokeratin protein [4] = test: cytokeratin immunocytochemistry (CAM5.2-FITC) on fixed TSU-PRI cells; percent of cells stained

Percentage of positive staining (cytokeratin protein [1]): 100% | Percentage of positive staining (cytokeratin protein [2]): 100% | Percentage of positive staining (cytokeratin protein [3]): 100% | Percentage of positive staining (cytokeratin protein [4]): 100%
Substance: FITC conjugated Anti-Cytokeratin (CAM5.2) monoclonal antibody (Becton-Dickinson, Cat. 347653)
